Consider 13 molecules from patent publication US20230365671A1 (ONCOONE RESEARCH AND DEVELOPMENT, published 2023).

Changes are numbered by the printed parent chain. Numbers in names are those of the source.

The target in assay [1] is T1, oxMIF: recombinant human MIF immobilized into ELISA plates (transforming MIF to oxMIF) (human, UniProt P14174 2-115).
T1 construct: Same polypeptide as redMIF; differs in conformation (oxMIF isoform); also called immobilized MIF; immobilized oxMIF
In words: ELISA, antibody titrated on plate-immobilized recombinant human MIF (oxMIF), goat anti-human IgG(Fc)-HRP; EC50 of 4-parameter fit given as KD, two experiments. The procedure:
Recombinant human MIF diluted in PBS at 1 μg/ml was immobilized into ELISA plates overnight at 4° C. (transforming MIF to oxMIF according to Thiele et al., 2015). After blocking, serial dilutions of anti-oxMIF antibodies were added to the plates. Finally, bound antibodies were detected with Goat anti-human IgG(Fc)-HRP conjugate and tetramethylbenzidine (TMB) as substrate. The chromogenic reaction was stopped with 3M H₂SO₄ and OD was measured at 450 nm.

In assay [2] the target is T2, Human oxMIF (human recombinant MIF treated with 0.2% Proclin300, oxMIF surrogate) (human, UniProt P14174 2-115, treated with 0.2% Proclin300 (active component 5-chloro-2-methyl-4-isothiazolin-3-one) for 3 h to transform MIF into an oxMIF surrogate).
T2 construct: SPR analyte; also called Proclin300 treated MIF; soluble human oxMIF
T2 sequence (P14174 2-115 limits assumed): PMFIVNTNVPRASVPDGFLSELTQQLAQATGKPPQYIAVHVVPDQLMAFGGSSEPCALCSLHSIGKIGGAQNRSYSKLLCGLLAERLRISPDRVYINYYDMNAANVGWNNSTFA
In words: SPR (Biacore 3000), antibody amine-coupled to CM5 chip, Proclin300-treated MIF 50-150 nM as analyte, 1:1 Langmuir with mass transfer; mean of flow cells 2-4, SD +/-2.30 nM. The procedure:
(§1) FC1 was used as reference cell and was only reacted with buffers. Mouse or human recombinant MIF were diluted in HBS-EP buffer (GE Healthcare) to concentrations of 50, 75, 100, or 150 nM in the presence of 0.2% Proclin300 (active component 5-chloro-2-methyl-4-isothiazolin-3-one; Sigma) to transform MIF into an oxMIF surrogate (Thiele M et al., 2015) for 3 h at room temperature. Proclin300 treated MIF was applied to immobilized anti-oxMIF antibodies at a flow rate of 30 μl/min for 3 min using a Biacore™ 3000 Instrument (GE Healthcare). Dissociation time was 300 seconds, and the chip was regenerated using 10 mM HCl for 3 minutes. The kinetics of the concentration series were analyzed by local simultaneous association/dissociation fitting of each binding curve after subtraction of background from the reference cell (FC1) using the iterative Langmuir 1:1 interaction model with mass transfer compensation provided by the BiaEvaluation 4.1 software (GE Healthcare). Data are represented as mean+/−SD (standard deviation) of the calculated KD values of Flow Cells 2-4.
(In general: Surface plasmon resonance follows binding to a sensor surface in real time, without labels.)

Assay [3] has as its target T2, Human oxMIF (human recombinant MIF …). In words: SPR (Biacore 3000), antibody amine-coupled to CM5 chip, Proclin300-treated MIF 50-150 nM as analyte, 1:1 Langmuir with mass transfer; mean of flow cells 2-4, SD +/-0.83 nM. How it is done: as §1
Assay [4] shares this target. The experiment in a line: SPR (Biacore 3000), antibody amine-coupled to CM5 chip, Proclin300-treated MIF 50-150 nM as analyte, 1:1 Langmuir with mass transfer; mean of flow cells 2-4, SD +/-0.38 nM. How it is done: as §1
In assay [5] the target is T1, oxMIF: recombinant human MIF …. In words: ELISA, antibody titrated on plate-immobilized recombinant human MIF (oxMIF), protein L-HRP; EC50 of 4-parameter fit given as KD, mean of two experiments. How it is done:
(§2) Recombinant human MIF diluted in PBS at 1 μg/ml was immobilized into ELISA plates overnight at 4° C. (transforming MIF to oxMIF according to Thiele et al., 2015). After blocking, serial dilutions of anti-oxMIF antibodies were added to the plates. Finally, bound antibodies were detected using a protein L-HRP conjugate and tetramethylbenzidine (TMB) as substrate. The chromogenic reaction was stopped with 3M H₂SO₄ and OD was measured at 450 nm.
For orientation: An ELISA detects its analyte on a solid surface through an enzyme-linked reagent.

The target is the same in assay [6]. In words: ELISA on plate-immobilized recombinant human MIF (oxMIF). The procedure: as §2

T1 sequence (P14174 2-115 limits assumed): as above

B1: anti-oxMIF antibody C0108 (antibody, human IgG1, kappa)
heavy: EVQLQESGGGLVQPGGSLRLSCAASGFTFSIYSMNWVRQAPGKGLEWVSSIGSSGGTTYYADSVKGRFTISRDNSKNTLYLQMNSLRAEDTAVYYCAGSQYLYGMDVWGQGTTVTVSSASTKGPSVFPLAPSSKSTSGGTAALGCLVKDYFPEPVTVSWNSGALTSGVHTFPAVLQSSGLYSLSSVVTVPSSSLGTQTYICNVNHKPSNTKVDKKVEPKSCDKTHTCPPCPAPELLGGPDVFLFPPKPKDTLMISRTPEVTCVVVDVSHEDPEVQFNWYVDGVEVHNAKTKPREEQFNSTFRVVSVLTVVHQDWLNGKEYKCKVSNKALPAPEEKTISKTKGQPREPQVYTLPPSREEMTKNQVSLTCLVKGFYPSDIAVEWESNGQPENNYKTTPPMLDSDGSFFLYSKLTVDKSRWQQGNVFSCSVMHEALHNHYTQKSLSLSPG
light: DIQMTQSPSSLSASVGDRVTITCRSSQRIMTYLNWYQQKPGKAPKLLIYVGSHSQSGVPSRFRGSGSETDFTLTISGLQPEDSATYYCQQSFFTPLTFGGGTKVEIKRTVAAPSVFIFPPSDEQLKSGTASVVCLLNNFYPREAKVQWKVDNALQSGNSQESVTEQDSKDSTYSLSSTLTLSKADYEKHKVYACEVTHQGLSSPVTKSFNRGEC
notes: ADCC/ADCP enhancing mutations in the Fc portion
As for B1, the results for the equilibrium dissociation constant (Kd) in assay [1] and in assay [2] were 0.3 nM and 6.06 nM, respectively.

B2: anti-oxMIF antibody C0109 (antibody, human IgG1, kappa)
heavy: B1 heavy
light: B1 light with M30L, P80S
notes: as for B1
Regarding B2, the Kd in assay [1] turned out to be 0.3 nM; in assay [3], 3.69 nM.

B3: anti-oxMIF antibody C0008 (control antibody) (antibody, human IgG1, kappa, V domains shown)
VH: EVQLLESGGGLVQPGGSLRLSCAASGFTFSIYSMNWVRQAPGKGLEWVSSIGSSGGTTYYADSVKGRFTISRDNSKNTLYLQMNSLRAEDTAVYYCAGSQWLYGMDVWGQGTTVTVSS
VL: DIQMTQSPSSLSASVGDRVTITCRSSQRIMTYLNWYQQKPGKAPKLLIFVASHSQSGVPSRFRGSGSETDFTLTISGLQPEDSATYYCQQSFWTPLTFGGGTKVEIKR
notes: Human IgG with wt Fc
Take B3: the Kd in assay [1] was found to be 0.2 nM; in assay [4], 3.49 nM; in assay [5], 0.7 nM.

B4: anti-oxMIF antibody C0090 (antibody, human IgG1, kappa)
heavy: not shown
light: B1 light with M30L, P80S
In the case of B4, in assay [5], the Kd is 0.5 nM.

B5: anti-oxMIF antibody C0098 (antibody, human IgG1, kappa)
heavy: EVQLLESGGGLVQPGGSLRLSCAASGFTFSIYSMNWVRQAPGKGLEWVSSIGSSGGTTYYADSVKGRFTISRDNSKNTLYLQMNSLRAEDTAVYYCAGSQWLYGMDVWGQGTTVTVSSASTKGPSVFPLAPSSKSTSGGTAALGCLVKDYFPEPVTVSWNSGALTSGVHTFPAVLQSSGLYSLSSVVTVPSSSLGTQTYICNVNHKPSNTKVDKRVEPKSCDKTHTCPPCPAPELLGGPDVFLFPPKPKDTLMISRTPEVTCVVVDVSFEDPEVKFNWYVDGVEVHNAKTKPREEQYNSTYRVVSVLTVLHQDWLNGKEYKCKVTNKALPAPEEKTISKAKGQPREPQVYTLPPSREEMTKNQVSLTCLVKGFYPSDIAVEWESNGQPENNYKTTPPVLDSDGSFFLYSKLTVDKSRWQQGNVFSCSVMHEALHNHYTQKSLSLSPG
light: B1 light
notes: Fc mutated to increase effector functions
As to B5, the Kd in assay [5] was determined as 0.7 nM.

B6: anti-oxMIF antibody C0078 (antibody, human IgG1, kappa)
heavy: not shown
light: B1 light
B6: in assay [5], the Kd is 1.6 nM.

B7: anti-oxMIF antibody C0100 (antibody, human IgG1, kappa)
heavy: EVQLLESGGGLVQPGGSLRLSCAASGFTFSIYSMNWVRQAPGKGLEWVSSIGSSGGTTYYADSVKGRFTISRDNSKNTLYLQMNSLRAEDTAVYYCAGSQWLYGMDVWGQGTTVTVSSASTKGPSVFPLAPSSKSTSGGTAALGCLVKDYFPEPVTVSWNSGALTSGVHTFPAVLQSSGLYSLSSVVTVPSSSLGTQTYICNVNHKPSNTKVDKRVEPKSCDKTHTCPPCPAPELVGGPSVFLLPPKPKDTLMISRTPEVTCVVVDVSHEDPEVKFNWYVDGVEVHNAKTKPPEEQYNSTLRVVSVLTVLHQDWLNGKEYKCKVSNKALPAPIEKTISKAKGQPREPQVYTLPPSRDELTKNQVSLTCLVKGFYPSDIAVEWESNGQPENNYKTTPLVLDSDGSFFLYSKLTVDKSRWQQGNVFSCSVMHEALHNHYTQKSLSLSPG
light: B1 light
notes: as for B5
Take B7: the Kd in assay [5] came to 0.5 nM.

B8: anti-oxMIF antibody C0077 (antibody, human IgG1, kappa, V domains shown)
VH: B3 VH with L5Q
VL: B3 VL with Y36F, F49Y, A51G
notes: Differs from C0076 only by Y36F in VL
Turning to B8, in assay [6], the “fold reduction in affinity compared to C0076” value is 5 fold. In addition, the Kd in assay [5] is 5.2 nM.

B9: anti-oxMIF antibody C0099 (antibody, human IgG1, kappa)
heavy: B1 heavy with Q5L, Y101W
light: B1 light
notes: as for B5
For B9, the equilibrium dissociation constant (Kd) in assay [5] came to 0.4 nM.

B10: anti-oxMIF antibody C0076 (antibody, human IgG1, kappa, V domains shown)
VH: B3 VH with L5Q
VL: B3 VL with F49Y, A51G
As to B10, the dissociation constant Kd in assay [5] came to 1.1 nM.

B11: anti-oxMIF antibody C0097 (antibody, human IgG1, kappa)
heavy: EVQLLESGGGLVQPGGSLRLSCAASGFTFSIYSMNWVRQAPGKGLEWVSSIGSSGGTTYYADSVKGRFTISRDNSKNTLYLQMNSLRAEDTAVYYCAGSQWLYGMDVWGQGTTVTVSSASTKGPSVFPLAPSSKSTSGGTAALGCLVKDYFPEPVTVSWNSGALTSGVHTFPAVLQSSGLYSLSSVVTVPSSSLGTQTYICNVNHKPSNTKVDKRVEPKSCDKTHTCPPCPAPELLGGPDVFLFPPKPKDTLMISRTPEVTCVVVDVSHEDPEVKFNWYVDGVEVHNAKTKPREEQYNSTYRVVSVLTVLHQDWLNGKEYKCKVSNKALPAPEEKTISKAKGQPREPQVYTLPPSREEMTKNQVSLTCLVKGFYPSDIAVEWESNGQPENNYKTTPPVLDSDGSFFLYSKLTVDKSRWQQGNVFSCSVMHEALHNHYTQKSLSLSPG
light: B1 light
notes: as for B5
Regarding B11, the dissociation constant Kd in assay [5] was 0.8 nM.

B12: anti-oxMIF antibody C0083 (antibody, human IgG1, kappa)
heavy: not shown
light: B1 light
Consider B12, for which, in assay [5], the Kd came to 0.5 nM.

B13: anti-oxMIF antibody C0073 (antibody, human IgG1, kappa)
heavy: not shown
light: B1 light
With B13, the equilibrium dissociation constant (Kd) in assay [5] came out at 1 nM.

Usually Kd stands for the concentration at which binding is half-saturated.
